Source: patent US20030134779A1, “Method and composition for treatment and/or prevention of antibiotic-resistant microorganism infections” (priority 2002, published 2003)

Assays:
[1] = test system: β-lactamase activity of S. aureus SHY97-4320; test: β-lactamase activity, nitrocefin assay, human LF; type: cell-based, Staphylococcus aureus
Procedure: Penicillin G was purchased from Novopharm Limited (Toronto, Ontario, Canada). […] Antibiotic stock solutions were always freshly prepared and diluted to the desired concentration in Mueller Hinton broth (MHB) medium (Difco Laboratories, Detroit, MI). β-Lactamase activity was measured using a quantitative spectrophotometric assay with the chromogenic cephalosporin nitrocefin. Bacterial cells were first exposed to penicillin and/or LF during 4 and 22-h in broth. At each time point, the number of cfu/ml were determined and cells aliquots were centrifuged.
The pellets were suspended in 10 mM HEPES buffer (pH 7.4) to an OD415 nm of 0.4 for PC-1 and 4 for strain SHY97-4320. Nitrocefin (100 μM) was added to 20 μl of cells in a final volume of 200 μl. Hydrolysis was measured at 486 nm on a Spectra Max 250 Microplate Spectrophotometer System of Molecular Device (Fisher Scientific, Ottawa, Canada). β-Lactamase activity was expressed as ΔO.D.486 nm/min and corrected for bacterial OD.

[2] = test system: β-lactamase activity of S. aureus PC-1; test: β-lactamase activity, nitrocefin assay, human LF; type: cell-based; settings: incubation for 4 h
Chain of β-lactamase activity of S. aureus PC-1 (P00807 25-281): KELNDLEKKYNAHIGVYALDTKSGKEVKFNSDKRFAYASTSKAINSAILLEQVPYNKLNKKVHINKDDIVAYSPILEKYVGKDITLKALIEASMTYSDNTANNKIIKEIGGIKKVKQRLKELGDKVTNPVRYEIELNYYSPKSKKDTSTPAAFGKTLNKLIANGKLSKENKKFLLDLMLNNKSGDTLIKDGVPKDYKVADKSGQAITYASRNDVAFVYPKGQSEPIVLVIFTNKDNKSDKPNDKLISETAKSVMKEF

Chain of β-lactamase activity of S. aureus SHY97-4320 (P00807 25-281): as above

B1: human LF: Human LF (Sigma) (protein, UniProt P02788 20-710, looked up)
Lactotransferrin: GRRRSVQWCAVSQPEATKCFQWQRNMRKVRGPPVSCIKRDSPIQCIQAIAENRADAVTLDGGFIYEAGLAPYKLRPVAAEVYGTERQPRTHYYAVAVVKKGGSFQLNELQGLKSCHTGLRRTAGWNVPIGTLRPFLNWTGPPEPIEAAVARFFSASCVPGADKGQFPNLCRLCAGTGENKCAFSSQEPYFSYSGAFKCLRDGAGDVAFIRESTVFEDLSDEAERDEYELLCPDNTRKPVDKFKDCHLARVPSHAVVARSVNGKEDAIWNLLRQAQEKFGKDKSPKFQLFGSPSGQKDLLFKDSAIGFSRVPPRIDSGLYLGSGYFTAIQNLRKSEEEVAARRARVVWCAVGEQELRKCNQWSGLSEGSVTCSSASTTEDCIALVLKGEADAMSLDGGYVYTAGKCGLVPVLAENYKSQQSSDPDPNCVDRPVEGYLAVAVVRRSDTSLTWNSVKGKKSCHTAVDRTAGWNIPMGLLFNQTGSCKFDEYFSQSCAPGSDPRSNLCALCIGDEQGENKCVPNSNERYYGYTGAFRCLAENAGDVAFVKDVTVLQNTDGNNNEAWAKDLKLADFALLCLDGKRKPVTEARSCHLAMAPNHAVVSRMDKVERLKQVLLHQQAKFGRNGSDCPDKFCLFQSETKNLLFNDNTECLARLHGKTTYEKYLGPQYVAGITNLKKCSTSPLLEACEFLRK
β-lactamase activity ([1]; 1 mg/ml human LF added at the same time as 8 μg/ml penicillin G, P<0.001): an important reduction of the β-lactamase activity
β-lactamase activity ([1]; human LF 1 mg/ml alone): no β-lactamase activity
reduction of β-lactamase activity [2]: 50%
